Sequences and labels used below:
B1: DBP-RII with C-terminally fused GFP, wild type, on the surface of HEK293T cells [Plasmodium vivax] / Duffy antigen/receptor for chemokines (DARC) on human red blood cells [human (endogenous in RBCs)] (parent)
chain 1: ASNTVMKNCNYKRKRRERDWDCNTKKDVCIPDRRYQLCMKELTNLVNNTDTNFHRDITFRKLYLKRKLIYDAAVEGDLLLKLNNYRYNKDFCKDIRWSLGDFGDIIMGTDMEGIGYSKVVENNLRSIFGTDEKAQQRRKQWWNESKAQIWTAMMYSVKKRLKGNFIWICKLNVAVNIEPQIYRWIREWGRDYVSELPTEVQKLKEKCDGKINYTDKKVCKVPPCQNACKSYDQWITRKKNQWDVLSNKFISVKNAEKVQTAGIVTPYDILKQELDEFNEVAFENEINKRDGAYIELCVCSVEEAKKNTQEVVTNVDN
chain 2: MGNCLHRAELSPSTENSSQLDFEDVWNSSYGVNDSFPDGDYGANLEAAAPCHSCNLLDDSALPFFILTSVLGILASSTVLFMLFRPLFRWQLCPGWPVLAQLAVGSALFSIVVPVLAPGLGSTRSSALCSLGYCVWYGSAFAQALLLGCHASLGHRLGAGQVPGLTLGLTVGIWGVAALLTLPVTLASGASGGLCTLIYSTELKALQATHTVACLAIFVLLPLGLFGAKGLKKALGMGPGPWMNILWAWFIFWWPHGVVLGLDFLVRSKLLLLSTCLAQQALDLLLNLAEALAILHCVATPLLLALFCHQATRTLLPSLPLPEGWSSHLDTLGSKS

The variants in this test derive from B1. As to the kind of experiment: red blood cell rosetting (RBC binding) assay with DBP-RII-GFP expressed on HEK293 cells. To be noted: parent: 100, read off a plot.
As for chain 1 ASNTVMKNCNYKRKRRERDWDCNTKKDVCIPDRRYQLCMKELTNLVNNTDTNFHRDITFRKLYLKRKLIYDAAVEGDLLLKLNNYRYNKDFCKDIRWSLGDFGDIIMGTDMEGIGYSKVVENNLRSIFGTDEKAQQRRKQWWNESKAQIWTAMMASVKKRLKGNFIWICKLNVAVNIEPQIYRWIREWGRDYVSELPTEVQKLKEKCDGKINYTDKKVCKVPPCQNACKSYDQWITRKKNQWDVLSNKFISVKNAEKVQTAGIVTPYDILKQELDEFNEVAFENEINKRDGAYIELCVCSVEEAKKNTQEVVTNVDN [chain 1 Y155A], the percent of parent was determined as 0 % Binding. In the case of chain 1 ASNTVMKNCNYKRKRRERDWDCNTKKDVCIPDRRYQLCMKELTNLVNNTDTNFHRDITFRKLYLKRKLIYDAAVEGDLLLKLNNYRYNKDFCKDIRWSLGDFGDIIMGTDMEGIGYSKVVENNLRSIFGTDEKAQQRRKQWWNESKAQIWTAMMLSVKKRLKGNFIWICKLNVAVNIEPQIYRWIREWGRDYVSELPTEVQKLKEKCDGKINYTDKKVCKVPPCQNACKSYDQWITRKKNQWDVLSNKFISVKNAEKVQTAGIVTPYDILKQELDEFNEVAFENEINKRDGAYIELCVCSVEEAKKNTQEVVTNVDN [chain 1 Y155L], the percent of parent came out at 0 % Binding. In the case of chain 1 ASNTVMKNCNYKRKRRERDWDCNTKKDVCIPDRRYQLCMKELTNLVNNTDTNFHRDITFRKLYLKRKLIYDAAVEGDLLLKLNNYRYNKDFCKDIRWSLGDFGDIIMGTDMEGIGYSKVVENNLRSIFGTDEKAQQRRKQWWNESKADIWTAMMYSVKKRLKGNFIWICKLNVAVNIEPQIYRWIREWGRDYVSELPTEVQKLKEKCDGKINYTDKKVCKVPPCQNACKSYDQWITRKKNQWDVLSNKFISVKNAEKVQTAGIVTPYDILKQELDEFNEVAFENEINKRDGAYIELCVCSVEEAKKNTQEVVTNVDN [chain 1 Q148D], the percent of parent stood at 18 % Binding. Regarding chain 1 ASNTVMKNCNYKRKRRERDWDCNTKKDVCIPDRRYQLCMKELTNLVNNTDTNFHRDITFRKLYLKRKLIYDAAVEGDLLLKLNNYRYNKDFCKDIRWSLGDFGDIIMGTDMEGIGYSKVVENNLRSIFGTDEKAQQRRKQWWNESKAYIWTAMMYSVKKRLKGNFIWICKLNVAVNIEPQIYRWIREWGRDYVSELPTEVQKLKEKCDGKINYTDKKVCKVPPCQNACKSYDQWITRKKNQWDVLSNKFISVKNAEKVQTAGIVTPYDILKQELDEFNEVAFENEINKRDGAYIELCVCSVEEAKKNTQEVVTNVDN [chain 1 Q148Y], the percent of parent is 66 % Binding. On to chain 1 ASNTVMKNCNYKRKRRERDWDCNTKKDVCIPDRRYQLCMKELTNLVNNTDTNFHRDIWFRKLYLKRKLIYDAAVEGDLLLKLNNYRYNKDFCKDIRWSLGDFGDIIMGTDMEGIGYSKVVENNLRSIFGTDEKAQQRRKQWWNESKAQIWTAMMYSVKKRLKGNFIWICKLNVAVNIEPQIYRWIREWGRDYVSELPTEVQKLKEKCDGKINYTDKKVCKVPPCQNACKSYDQWITRKKNQWDVLSNKFISVKNAEKVQTAGIVTPYDILKQELDEFNEVAFENEINKRDGAYIELCVCSVEEAKKNTQEVVTNVDN [chain 1 T58W], for which the percent of parent amounted to 55 % Binding.

With chain 1 ASNTVMKNCNYKRKRRERDWDCNTKKDVCIPDRRYQLCMKELTNLVNNTDTNFHRDITFRKLYLKRKLIYDALVEGDLLLKLNNYRYNKDFCKDIRWSLGDFGDIIMGTDMEGIGYSKVVENNLRSIFGTDEKAQQRRKQWWNESKAQIWTAMMYSVKKRLKGNFIWICKLNVAVNIEPQIYRWIREWGRDYVSELPTEVQKLKEKCDGKINYTDKKVCKVPPCQNACKSYDQWITRKKNQWDVLSNKFISVKNAEKVQTAGIVTPYDILKQELDEFNEVAFENEINKRDGAYIELCVCSVEEAKKNTQEVVTNVDN [chain 1 A73L], the percent of parent is 0 % Binding. For the variant chain 1 ASNTVMKNCNYKRKRRERDWDCNTKKDVCIPDRRYQLCMKELTNLVNNTDTNFHRRITFRKLYLKRKLIYDAAVEGDLLLKLNNYRYNKDFCKDIRWSLGDFGDIIMGTDMEGIGYSKVVENNLRSIFGTDEKAQQRRKQWWNESKAQIWTAMMYSVKKRLKGNFIWICKLNVAVNIEPQIYRWIREWGRDYVSELPTEVQKLKEKCDGKINYTDKKVCKVPPCQNACKSYDQWITRKKNQWDVLSNKFISVKNAEKVQTAGIVTPYDILKQELDEFNEVAFENEINKRDGAYIELCVCSVEEAKKNTQEVVTNVDN [chain 1 D56R], the percent of parent came to 42 % Binding. In the case of chain 1 ASNTVMKNCNYKRKRRERDWDCNTKKDVCIPDRRYQLCMKELTNLVNNTDTNFHRWITFRKLYLKRKLIYDAAVEGDLLLKLNNYRYNKDFCKDIRWSLGDFGDIIMGTDMEGIGYSKVVENNLRSIFGTDEKAQQRRKQWWNESKAQIWTAMMYSVKKRLKGNFIWICKLNVAVNIEPQIYRWIREWGRDYVSELPTEVQKLKEKCDGKINYTDKKVCKVPPCQNACKSYDQWITRKKNQWDVLSNKFISVKNAEKVQTAGIVTPYDILKQELDEFNEVAFENEINKRDGAYIELCVCSVEEAKKNTQEVVTNVDN [chain 1 D56W], the percent of parent stood at 59 % Binding.

With chain 1 ASNTVMKNCNYKRKRRERDWDCNTKKDVCIPDRRYQLCMKELTNLVNNTDTNFHRDRTFRKLYLKRKLIYDAAVEGDLLLKLNNYRYNKDFCKDIRWSLGDFGDIIMGTDMEGIGYSKVVENNLRSIFGTDEKAQQRRKQWWNESKAQIWTAMMYSVKKRLKGNFIWICKLNVAVNIEPQIYRWIREWGRDYVSELPTEVQKLKEKCDGKINYTDKKVCKVPPCQNACKSYDQWITRKKNQWDVLSNKFISVKNAEKVQTAGIVTPYDILKQELDEFNEVAFENEINKRDGAYIELCVCSVEEAKKNTQEVVTNVDN [chain 1 I57R], the percent of parent stood at 72 % Binding.

Values taken from paper PMC3887093.
